# Reference: patent publication US20170174769A1
# Where “and” joins values, the source holds several entries; their conditions need not be identical. Equal entries are not always repeated.
# Columns and labels:
# [1] = target: full-length human FGFR1c on HEK293/hFGFR1c/SRE-luc cells (human) (UniProt P11362); experiment: FACS on stable HEK293 cells, secondary antibody alone
# [2] = target: full-length human KLB on HEK293/hKLB/SRE-luc cells (human) (UniProt Q86Z14); experiment: as above
# [3] = target: human KLB and human FGFR1c co-expressed on HEK293/hKLB/hFGFR1c/SRE-luc cells (human) (UniProt Q86Z14); experiment: as above
# human KLB and human FGFR1c co-expressed on HEK293/hKLB/hFGFR1c/SRE-luc cells (human), sequence (Q86Z14 whole entry, chain 1 of 2): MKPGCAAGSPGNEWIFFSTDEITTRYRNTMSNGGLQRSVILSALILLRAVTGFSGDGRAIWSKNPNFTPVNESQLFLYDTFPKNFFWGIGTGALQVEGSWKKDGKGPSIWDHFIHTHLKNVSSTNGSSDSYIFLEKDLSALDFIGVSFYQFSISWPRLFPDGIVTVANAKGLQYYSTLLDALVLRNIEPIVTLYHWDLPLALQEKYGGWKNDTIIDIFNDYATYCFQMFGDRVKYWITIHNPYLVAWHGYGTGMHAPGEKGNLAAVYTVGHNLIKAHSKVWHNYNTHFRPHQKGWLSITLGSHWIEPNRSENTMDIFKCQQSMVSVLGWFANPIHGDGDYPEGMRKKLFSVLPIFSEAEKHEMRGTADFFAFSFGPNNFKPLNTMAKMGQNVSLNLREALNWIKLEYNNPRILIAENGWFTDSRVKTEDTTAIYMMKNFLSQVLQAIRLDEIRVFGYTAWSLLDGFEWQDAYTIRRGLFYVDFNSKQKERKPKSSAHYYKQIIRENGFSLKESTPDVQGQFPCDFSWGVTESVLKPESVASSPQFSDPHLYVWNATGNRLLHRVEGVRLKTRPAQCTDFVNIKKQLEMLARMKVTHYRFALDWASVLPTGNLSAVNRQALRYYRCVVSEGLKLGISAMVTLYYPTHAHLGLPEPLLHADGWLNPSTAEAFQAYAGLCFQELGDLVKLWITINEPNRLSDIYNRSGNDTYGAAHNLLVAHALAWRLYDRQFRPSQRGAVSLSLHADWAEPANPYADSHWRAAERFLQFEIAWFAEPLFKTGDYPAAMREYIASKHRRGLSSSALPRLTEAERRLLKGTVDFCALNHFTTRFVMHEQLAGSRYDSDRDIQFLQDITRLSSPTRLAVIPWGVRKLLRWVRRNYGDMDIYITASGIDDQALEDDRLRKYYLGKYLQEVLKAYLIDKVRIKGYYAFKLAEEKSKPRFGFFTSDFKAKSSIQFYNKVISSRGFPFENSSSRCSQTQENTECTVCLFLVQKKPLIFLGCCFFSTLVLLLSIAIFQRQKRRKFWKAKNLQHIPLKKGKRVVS
# human KLB and human FGFR1c co-expressed on HEK293/hKLB/hFGFR1c/SRE-luc cells (human), sequence (chain, as listed by the source limits assumed, chain 2 of 2): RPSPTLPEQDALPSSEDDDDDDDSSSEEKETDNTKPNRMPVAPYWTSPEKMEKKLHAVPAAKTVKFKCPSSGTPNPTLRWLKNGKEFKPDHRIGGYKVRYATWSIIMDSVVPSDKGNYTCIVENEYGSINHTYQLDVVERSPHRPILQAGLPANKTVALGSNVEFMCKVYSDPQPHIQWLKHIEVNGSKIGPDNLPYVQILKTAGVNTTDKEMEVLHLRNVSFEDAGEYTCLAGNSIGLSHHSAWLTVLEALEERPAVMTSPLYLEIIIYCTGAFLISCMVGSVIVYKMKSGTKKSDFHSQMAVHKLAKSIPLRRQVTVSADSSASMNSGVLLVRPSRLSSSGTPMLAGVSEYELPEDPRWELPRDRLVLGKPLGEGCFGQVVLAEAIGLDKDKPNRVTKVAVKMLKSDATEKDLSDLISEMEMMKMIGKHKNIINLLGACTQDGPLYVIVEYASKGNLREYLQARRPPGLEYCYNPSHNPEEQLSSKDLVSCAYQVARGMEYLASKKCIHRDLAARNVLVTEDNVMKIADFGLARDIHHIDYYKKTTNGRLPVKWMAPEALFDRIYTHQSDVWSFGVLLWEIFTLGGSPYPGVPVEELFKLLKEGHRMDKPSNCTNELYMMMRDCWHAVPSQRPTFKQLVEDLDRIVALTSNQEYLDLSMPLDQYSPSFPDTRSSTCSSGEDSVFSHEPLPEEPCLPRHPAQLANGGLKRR
# [4] = target: full-length human FGFR1c on HEK293/hFGFR1c/SRE-luc cells (human) (UniProt P11362); experiment: FACS on stable HEK293 cells
# [5] = target: full-length human KLB on HEK293/hKLB/SRE-luc cells (human) (UniProt Q86Z14); experiment: FACS on stable HEK293 cells
# [6] = target: human KLB and human FGFR1c co-expressed on HEK293/hKLB/hFGFR1c/SRE-luc cells (human) (UniProt Q86Z14); experiment: FACS on stable HEK293 cells
# [7] = target: full-length human FGFR1c on HEK293/hFGFR1c/SRE-luc cells (human) (UniProt P11362); experiment: cell-based or functional assay
# [8] = target: cell-surface human FGFR1c alone (amino acids 1-731 of NP_075594) on HEK293/hFGFR1c/SRE-Luc cells of Example 19 (human) (UniProt P11362); experiment: cell-based or functional assay
# cell-surface human FGFR1c alone (amino acids 1-731 of NP_075594) on HEK293/hFGFR1c/SRE-Luc cells of Example 19 (human), sequence (P11362 22-822): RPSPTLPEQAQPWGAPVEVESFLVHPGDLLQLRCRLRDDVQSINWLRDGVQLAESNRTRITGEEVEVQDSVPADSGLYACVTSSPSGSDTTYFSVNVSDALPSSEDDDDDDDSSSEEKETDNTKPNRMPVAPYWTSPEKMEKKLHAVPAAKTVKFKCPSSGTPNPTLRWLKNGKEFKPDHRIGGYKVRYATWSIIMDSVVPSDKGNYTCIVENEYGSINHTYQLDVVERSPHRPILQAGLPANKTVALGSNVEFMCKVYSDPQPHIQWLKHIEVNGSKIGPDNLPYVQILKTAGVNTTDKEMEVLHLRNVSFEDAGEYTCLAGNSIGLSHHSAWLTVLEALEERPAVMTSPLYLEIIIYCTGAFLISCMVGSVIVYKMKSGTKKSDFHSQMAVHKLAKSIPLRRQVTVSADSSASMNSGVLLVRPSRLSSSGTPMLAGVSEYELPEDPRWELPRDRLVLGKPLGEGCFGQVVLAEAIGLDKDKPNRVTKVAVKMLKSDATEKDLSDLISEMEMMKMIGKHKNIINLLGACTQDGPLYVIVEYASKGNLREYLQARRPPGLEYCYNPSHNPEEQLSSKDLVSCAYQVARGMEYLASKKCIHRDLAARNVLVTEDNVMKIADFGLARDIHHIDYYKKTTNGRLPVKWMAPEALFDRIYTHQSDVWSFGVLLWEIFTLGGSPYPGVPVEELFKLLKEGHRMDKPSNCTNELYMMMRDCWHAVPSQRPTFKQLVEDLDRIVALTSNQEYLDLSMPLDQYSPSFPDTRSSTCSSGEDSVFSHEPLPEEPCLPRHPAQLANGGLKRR
# [9] = target: full-length human FGFR1c on HEK293/hFGFR1c/SRE-luc cells (human) (UniProt P11362); experiment: FACS on stable HEK293 cells, secondary antibody alone; row shifted one column to the left (c3 = 293/hFGFR1c)
# [10] = target: human KLB and human FGFR1c co-expressed on HEK293/hKLB/hFGFR1c/SRE-luc cells (human) (UniProt Q86Z14); experiment: FACS on stable HEK293 cells, secondary antibody alone; row shifted one column to the left (c4 = 293/hFGFR1c/hKLB)
# [11] = target: mouse KLB and mouse FGFR1c co-expressed on HEK293/mKLB/mFGFR1c/SRE-Luc cells (mouse); experiment: FACS on stable HEK293 cells, secondary antibody alone; row shifted one column to the left (c5 = 293/mFGFR1c/mKLB)
# full-length human KLB on HEK293/hKLB/SRE-luc cells (human), sequence (Q86Z14 whole entry): as the sequence (Q86Z14 whole entry, chain 1 of 2) above
# full-length human FGFR1c on HEK293/hFGFR1c/SRE-luc cells (human), sequence (P11362 other isoform, or with tags, fused parts or gaps limits assumed): as the sequence (chain, as listed by the source limits assumed, chain 2 of 2) above
Substance,binding ratio to unstained cells [1],binding ratio to unstained cells [2],binding ratio to unstained cells [3],binding ratio to unstained cells [4],binding ratio to unstained cells [5],binding ratio to unstained cells [6],also measured
"human FGF2 (hFGF2; R&D Systems, #233-FB/CF) (from UniProt P09038 143-288) (ligand)",,,,,,,"EC50, SRE-luc activation by ligand [7]: 0.4 nM and 0.8 nM; EC50, SRE-luc activation [8]: 1.6 nM"
Anti-Human IgG Secondary Antibody,1 fold,2 fold,1 fold,,,,MFI Ratio to unstained cells [9]: 1 fold; MFI Ratio to unstained cells [10]: 1 fold; MFI Ratio to unstained cells [11]: 1 fold

# The next lines start with results.
binding ratio to unstained cells [1],binding ratio to unstained cells [2],binding ratio to unstained cells [3],binding ratio to unstained cells [4],binding ratio to unstained cells [5],binding ratio to unstained cells [6],Substance,also measured
1 fold,1 fold,1 fold,,,,Anti-Mouse IgG Secondary Antibody,
,,,2 fold,2 fold,2 fold,Irrelevant IgG control 2 (antibody),
,,,1 fold,1 fold,2 fold,Irrelevant IgG control 1 (antibody),
